In the RNAGym collection of RNA variant scans (doi:10.7554/elife.90254):

B1: LINE1-full (parent)
chain: UACGUAGGUGGUUUUCCCCUGAUAGUGCUAAGGGGGCCUGGAAGUUUGGACUGGGCAGAGCUCAACACAGCGUGGCAAAGUGGCUGUGGCUAGACUGCCUCUCUGGAUUCCUCGUCACUCAGCAGGGCAUCUCUGAGAGAAAUGCC

Variants of: B1
Assay: self-cleavage, relative activity (ratio to wild type); higher = more cleavage; in vitro, sequencing; the parent is a self-cleaving ribozyme

Variant | self-cleavage
U52G U91C | 1.23
U52G U100A | 0.43
U52G U104A | 1
U52G U108C | 1.94
U52G U109A | 2.14
U52G U112A | 0.56
U52G U112C | 0.99
U52G U119A | 0.93
U52G U132C | 1.42
G53A A59G | 0.06
G53A A79G | 0.71
G53A A117G | 2.04
G53A A121U | 1.7
G53A A124U | 1.28
G53A A136U | 1.47
G53A A138G | 1.72
G53A A141G | 1.26
G53A A142G | 1.3
G53A C103A | 1.43
G53A C146U | 1.31
G53A G74A | 1.04
G53A G88A | 0.07
G53A U62C | 0.05
G53A U73A | 1.88

Variant | self-cleavage
G53A U73G | 1.05
G53A U85A | 0.14
G53A U85C | 0.2
G53A U91C | 0.53
G53A U96C | 0
G53A U108A | 0.14
G53A U112C | 1.25
G53A U130A | 1.21
G53A U132C | 1.29
G53A U134A | 1.23
G53A U143C | 1.59
G53C A64G | 0.22
G53C U81C | 1.34
G53C U96C | 0.09
G53C U115C | 1.96
G53U A57C | 0.01
G53U A64G | 0.16
G53U A65U | 0.27
G53U A69U | 0.01
G53U A94G | 0.2
G53U U73C | 1.22
G53U U81C | 2
G53U U87A | 0.05
G53U U91C | 0.54

Variant | self-cleavage
G53U U130C | 1.5
G54A | 0.61
G54A A57C | 0.07
G54A A69C | 0.04
G54A A79G | 0.4
G54A A94G | 0.15
G54A A107G | 0.47
G54A A117C | 1.1
G54A A117U | 1.1
G54A A121U | 0.85
G54A A138G | 0.84
G54A A140G | 0.73
G54A A142G | 0.83
G54A C116A | 0.47
G54A C145U | 0.54
G54A G72A | 0.45
G54A G125U | 0.69
G54A U73C | 0.67
G54A U81A | 0.78
G54A U85C | 0.03
G54A U96A | 0.03
G54A U96C | 0.04
G54A U104A | 0.18
G54A U104C | 0.44

Variant | self-cleavage
G54A U108C | 0.89
G54A U112A | 0.83
G54A U115C | 1.27
G54A U115G | 1.02
G54A U119A | 0.55
G54A U130C | 0.9
G54A U134G | 0.76
G54C | 0.86
G54C A138G | 1.35
G54C U104C | 1.3
G54U | 0.67
G54U A64G | 0.21
G54U A117G | 0.52
G54U A129G | 1.02
G54U G82A | 1.26
G54U U115A | 0.74
G55A | 0.19
G55A A64G | 0
G55A A65G | 0.03
G55A A79G | 0.4
G55A A92G | 0.03
G55A A141G | 0.11
G55A A142G | 0.27
G55A C110U | 0.53

Variant | self-cleavage
G55A C131G | 0.35
G55A G114U | 0.22
G55A G125C | 0.15
G55A U73A | 0.12
G55A U85C | 0.06
G55A U87C | 0.04
G55A U96A | 0.05
G55A U96C | 0.04
G55A U102C | 0.17
G55A U108C | 0.52
G55A U109C | 0.1
G55A U115A | 0.21
G55A U115C | 0.63
G55C | 0.08
G55C A57U | 0.02
G55C A65G | 0.06
G55C A67G | 0.05
G55C A94C | 0
G55C A129U | 0.09
G55C A142G | 0.06
G55C C146U | 0.25
G55C G72A | 0.08
G55C U73A | 0.07
G55C U87C | 0.37

Variant | self-cleavage
G55U | 0.19
G55U A142G | 0.11
G55U C113U | 0.07
G55U C133A | 0.26
G55U U96C | 0.08
G55U U102C | 0.06
G55U U134G | 0.15
C56A | 0.05
C56A A124G | 0.03
C56A C120U | 0.17
C56A G106A | 0.08
C56A U96A | 0.03
C56A U130G | 0.03
C56A U134C | 0.07
C56G | 0.07
C56G A77G | 0.04
C56G A79G | 0.1
C56G A129C | 0.08
C56U | 0.11
C56U A57G | 0.04
C56U A59G | 0.05
C56U A65G | 0.03
C56U A69G | 0.02
C56U A69U | 0.02

Variant | self-cleavage
C56U A77U | 0.11
C56U A78G | 0.06
C56U A78U | 0.15
C56U A92G | 0.06
C56U A107G | 0.1
C56U A117G | 0.18
C56U A129U | 0.23
C56U A142G | 0.11
C56U C76U | 0.34
C56U C128U | 0.22
C56U G74A | 0.09
C56U U73A | 0.08
C56U U73C | 0.25
C56U U85C | 0.07
C56U U85G | 0.03
C56U U96A | 0.03
C56U U109C | 0.03
C56U U119C | 0.21
C56U U130C | 0
C56U U132C | 0.2
C56U U134C | 0.23
A57C A65G | 0
A57C A67U | 0.14
A57C A78G | 0

Variant | self-cleavage
A57C A94G | 0.25
A57C A107U | 0.07
A57C A129G | 0.14
A57C A141G | 0.11
A57C C61U | 0.05
A57C C131A | 0.08
A57C G97U | 0.04
A57C G127A | 0.03
A57C U81C | 0.04
A57C U81G | 0.16
A57C U87C | 0
A57C U91C | 0
A57C U96A | 0.01
A57C U96C | 0.08
A57C U102A | 0.06
A57C U112C | 0.08
A57C U130C | 0.18
A57C U143A | 0.22
A57G A59G | 0.62
A57G A64G | 0.3
A57G A64U | 0.3
A57G A65C | 0.05
A57G A67G | 0.28
A57G A69G | 0.21

Variant | self-cleavage
A57G A77G | 1.68
A57G A77U | 0.58
A57G A78U | 1.62
A57G A79C | 0.8
A57G A79G | 1.32
A57G A92G | 0.14
A57G A92U | 0.3
A57G A94G | 0.16
A57G A107G | 1.01
A57G A117U | 0.79
A57G A121U | 1
A57G A124C | 0.91
A57G A129C | 1.33
A57G A136G | 1.33
A57G A138C | 1.13
A57G A140G | 0.91
A57G A142G | 0.84
A57G A142U | 0.38
A57G C61U | 0.05
A57G C68A | 0.06
A57G C71G | 0.07
A57G C98G | 0.07
A57G C116U | 0.71
A57G C120A | 0.93

Variant | self-cleavage
A57G C128G | 0.55
A57G G60A | 0.06
A57G G74A | 0.46
A57G G82A | 1.75
A57G G82C | 1.36
A57G G86A | 0.05
A57G G89A | 0.04
A57G G106U | 0.58
A57G G114A | 0.84
A57G G125A | 0.52
A57G G125U | 0.92
A57G G126U | 0.65
A57G G127A | 0.94
A57G G137A | 0.99
A57G U73C | 1.17
A57G U73G | 0.69
A57G U87A | 0.08
A57G U96A | 0.05
A57G U96C | 1.37
A57G U100C | 1.99
A57G U102C | 0.43
A57G U104A | 0.3
A57G U108C | 1.48
A57G U112A | 0.99

Variant | self-cleavage
A57G U119A | 0.85
A57G U132A | 1.29
A57G U132C | 0.86
A57G U132G | 0.62
A57G U143A | 0.84
A57G U143C | 0.81
A57U A59U | 0.07
A57U A64G | 0.1
A57U A65U | 0.06
A57U A67C | 0.07
A57U A67G | 0.12
A57U A77G | 0.17
A57U A78G | 0.03
A57U A79G | 0.06
A57U A79U | 0.1
A57U A92G | 0.07
A57U A92U | 0.07
A57U A94G | 0.14
A57U A94U | 0.04
A57U A129U | 0.11
A57U A136G | 0.11
A57U A138G | 0.15
A57U C71U | 0.02
A57U C128U | 0.11

Variant | self-cleavage
A57U C145U | 0.08
A57U G60A | 0.04
A57U G60C | 0.05
A57U G75A | 0.03
A57U G83U | 0.02
A57U G114A | 0.07
A57U G126U | 0.1
A57U G135U | 0.08
A57U G139U | 0.11
A57U G144U | 0.3
A57U U81A | 0.05
A57U U81C | 0.12
A57U U87A | 0.05
A57U U87C | 0.04
A57U U91A | 0.07
A57U U91C | 0.04
A57U U96A | 0.52
A57U U96C | 0.06
A57U U96G | 0.22
A57U U100A | 0.03
A57U U102C | 0.13
A57U U104C | 0.15
A57U U109C | 0.03
A57U U112C | 0.01

Variant | self-cleavage
A57U U115A | 0.09
A57U U130A | 0.15
A57U U130C | 0.13
A57U U132C | 0.14
A57U U134C | 0.12
A57U U134G | 0.02
A57U U143A | 0.11
G58A | 0.05
G58A A59G | 0
G58A A79G | 0.06
G58A A107G | 0.04
G58A A117C | 0.1
G58A A117U | 0.05
G58A A129G | 0.03
G58A A129U | 0.06
G58A A136G | 0.05
G58A A138G | 0.04
G58A C110U | 0.05
G58A C145U | 0.04
G58A U81G | 0.12
G58A U87C | 0
G58A U96C | 0.04
G58A U102C | 0.04
G58A U115A | 0.1

Variant | self-cleavage
G58A U115C | 0.06
G58A U130C | 0.05
G58A U132C | 0.05
G58A U143C | 0
G58C | 0.03
G58U | 0.05
G58U A59G | 0.06
G58U A65U | 0.04
G58U A117G | 0.01
G58U A129G | 0.05
G58U A141G | 0.04
G58U G80A | 0
G58U G114A | 0.03
G58U G137U | 0.03
G58U U115C | 0.04
G58U U130C | 0.05
A59C A77U | 0.6
A59C C131A | 1.15
A59C U87A | 0.04
A59C U108C | 1.28
A59C U115C | 1.55
A59C U130C | 0.8
